Reference: article PMC3459973

Molecular target: TFAP2 (AP-2) (UniProt P05549)
Assay: DNA pull-down, SILAC MS and immunoblot
Conditions: PBB: 150 mM NaCl, 50 mM Tris/HCl pH 8.0, 10 mM MgCl2, 0.5% NP-40, protease inhibitor; 200 ug SILAC nuclear extract, 2 h at 4 C (automated: 8 C); elution 16 mM …

Chain of TFAP2 (AP-2) (P05549 whole entry): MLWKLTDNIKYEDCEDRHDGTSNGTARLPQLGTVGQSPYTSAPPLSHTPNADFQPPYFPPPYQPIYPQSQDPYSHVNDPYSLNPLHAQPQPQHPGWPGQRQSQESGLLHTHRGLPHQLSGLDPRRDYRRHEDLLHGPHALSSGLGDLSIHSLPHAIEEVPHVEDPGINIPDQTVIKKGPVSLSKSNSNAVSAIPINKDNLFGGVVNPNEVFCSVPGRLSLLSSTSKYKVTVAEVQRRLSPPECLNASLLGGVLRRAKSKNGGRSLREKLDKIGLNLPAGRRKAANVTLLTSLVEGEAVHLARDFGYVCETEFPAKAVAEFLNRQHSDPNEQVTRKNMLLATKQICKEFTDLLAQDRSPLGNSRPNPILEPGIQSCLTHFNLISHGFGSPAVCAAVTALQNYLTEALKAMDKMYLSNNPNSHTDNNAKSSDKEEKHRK

AACAAAACTGCAGGATCGAACTGACCGCCCGGGGCACGTGTC / TTGACACGTGCCCCGGGCGGTCAGTTCGATCCTGCAGTTTTG [AP2_C]
binding signal (SILAC ratio C/A): 10
